Experimental data reported in the supplement of paper PMC10567573.

B1: FAM107A (parent)
chain: LQRVLEHRRRNQLIKKKKEELEAK

Variants of: B1
Experiment: protein stability index of a GFP-peptide fusion (GPS, HEK-293T) (PSI 1-6); higher = more stable
Details: c terminus: a fixed tail appended
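Further: lentivirally expressed fusions sorted by FACS into six bins by GFP to DsRed ratio, PSI derived from sequencing read proportions per bin multiplied by bin number.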

Variant	protein stability index
LQRVLEHRRRNQLIKKKKEPLEAK	3.74
LQRVLEHRRRNQLIKKKKEQLEAK	2.12
LQRVLEHRRRNQLIKKKKEHLEAK	2.83
LQRVLEHRRRNQLIKKKKETLEAK	3.45
LQRVLEHRRRNQLIKKKKELLEAK	3.03
LQRVLEHRRRNQLIKKKKEKLEAK	3.34
LQRVLEHRRRNQLIKKKKEGLEAK	2.42
LQRVLEHRRRNQLIKKKKEFLEAK	2.52
LQRVLEHRRRNQLIKKKKENLEAK	3.35
LQRVLEHRRRNQLIKKKKEYLEAK	2.94
LQRVLEHRRRNQLIKKKKEVLEAK	3.58
LQRVLEHRRRNQLIKKKKESLEAK	3.99
LQRVLEHRRRNQLIKKKKEMLEAK	3.5
LQRVLEHRRRNQLIKKKKEALEAK	3.12
LQRVLEHRRRNQLIKKKKEWLEAK	2.29
LQRVLEHRRRNQLIKKKKEILEAK	3.35
LQRVLEHRRRNQLIKKKKEDLEAK	3.71
LQRVLEHRRRNQLIKIKKEELEAK	3.28
LQRVLEHRRRNQLIKYKKEELEAK	2.41
LQRVLEHRRRNQLIKMKKEELEAK	3.09
LQRVLEHRRRNQLIKSKKEELEAK	4
LQRVLEHRRRNQLIKGKKEELEAK	4.52
LQRVLEHRRRNQLIKWKKEELEAK	3.58
LQRVLEHRRRNQLIKHKKEELEAK	3

Variant	protein stability index
LQRVLEHRRRNQLIKQKKEELEAK	3.82
LQRVLEHRRRNQLIKNKKEELEAK	4.07
LQRVLEHRRRNQLIKRKKEELEAK	3.04
LQRVLEHRRRNQLIKTKKEELEAK	3.85
LQRVLEHRRRNQLIKKKKEECEAK	3.3
LQRVLEHRRRNQLIKKKKEEKEAK	2.99
LQRVLEHRRRNQLIKKKKEEQEAK	3.48
LQRVLEHRRRNQLIKKKKEEWEAK	3.18
LQRVLEHRRRNQLIKKKKEESEAK	3.92
LQRVLEHRRRNQLIKKKKEEGEAK	3.63
LQRVLEHRRRNQLIKKKKEEHEAK	3.77
LQRVLEHRRRNQLIKKKKEEYEAK	2.46
LQRVLEHRRRNQLIKKKKEENEAK	4.16
LQRVLEHRRRNQLIKKKKEEREAK	4.14
LQRVLEHRRRNQLIKKKKEEMEAK	3.32
LQRVLEHRRRNQLIKKKKEEVEAK	3.36
LQRVLEHRRRNQLIKKKKEEDEAK	4.01
LQRVLEHRRRNQLIKKKKEEIEAK	2.78
LQRVLEHRRRNQLIKKKKEEPEAK	3.46
LQRVLEHRRRNQLIKKKKEEFEAK	2.71
LQRVLEHRRRNQLIKKKKEETEAK	3.74
LQRVLEHRRRNQLIKKKKEEAEAK	3.88
LQRVLEHRRRNQLIKKKKQELEAK	2.56
LQRVLEHRRRNQLIKKKKRELEAK	2.56

Variant	protein stability index
LQRVLEHRRRNQLIKKKKNELEAK	2.98
LQRVLEHRRRNQLIKKKKDELEAK	4.2
LQRVLEHRRRNQLIKKKKYELEAK	3.23
LQRVLEHRRRNQLIKKKKFELEAK	2.22
LQRVLEHRRRNQLIKKKKMELEAK	3.19
LQRVLEHRRRNQLIKKKKCELEAK	2.46
LQRVLEHRRRNQLIKKKKIELEAK	3.12
LQRVLEHRRRNQLIKKKKTELEAK	3.19
LQRVLEHRRRNQLIKKKKVELEAK	2.7
LQRVLEHRRRNQLIKKKKSELEAK	3.13
LQRVLEHRRRNQLIKKKKKELEAK	2.97
LQRVLEHRRRNQLIKKKKLELEAK	1.86
LQRVLEHRRRNQLIKKKKPELEAK	3.41
LQRVLEHRRRNQLIKKKKHELEAK	2.87
LQRVLEHRRRNQLIKKMKEELEAK	3.16
LQRVLEHRRRNQLIKKCKEELEAK	2.8
LQRVLEHRRRNQLIKKHKEELEAK	3.52
LQRVLEHRRRNQLIKKWKEELEAK	3.74
LQRVLEHRRRNQLIKKDKEELEAK	4.78
LQRVLEHRRRNQLIKKIKEELEAK	2.58
LQRVLEHRRRNQLIKKFKEELEAK	3.73
LQRVLEHRRRNQLIKKVKEELEAK	3.25
LQRVLEHRRRNQLIKKAKEELEAK	3.44
LQRVLEHRRRNQLIKKLKEELEAK	3.5

Variant	protein stability index
LQRVLEHRRRNQLIKKQKEELEAK	3.8
LQRVLEHRRRNQLIKKTKEELEAK	4.38
LQRVLEHRRRNQLIKKYKEELEAK	3.37
LQRVLEHRRRNQLIKKEKEELEAK	4.31
LQRVLEHRRRNQLIKKGKEELEAK	4.27
LQRVLEHRRRNQLIKKKAEELEAK	4.54
LQRVLEHRRRNQLIKKKPEELEAK	4.37
LQRVLEHRRRNQLIKKKIEELEAK	2.74
LQRVLEHRRRNQLIKKKDEELEAK	4.4
LQRVLEHRRRNQLIKKKQEELEAK	3.04
LQRVLEHRRRNQLIKKKLEELEAK	2.81
LQRVLEHRRRNQLIKKKTEELEAK	3.93
LQRVLEHRRRNQLIKKKEEELEAK	3.89
LQRVLEHRRRNQLIKKKYEELEAK	3.11
LQRVLEHRRRNQLIKKKFEELEAK	4.52
LQRVLEHRRRNQLIKKKSEELEAK	3.62
LQRVLEHRRRNQLIKKKMEELEAK	3.57
LQRVLEHRRRNQLIKKKVEELEAK	3.21
LQRVLEHRRRNQLIKKKNEELEAK	3.41
LQRVLEHRRRNQLIKKKCEELEAK	3.37
LQRVLEHRRRNQLIKKKHEELEAK	3.67
LQRVLEHRRRNQLIKKKWEELEAK	3.1
